Measured values published in paper PMC8623652.

Assays:
[1] = target: NCS-1 in HEK293 cells transfected with NCS-1-pCI-neo (UniProt P62166); test: Western blotting of cell lysates under non-reducing conditions (disulfide dimer); HEK293 cells transfected with NCS-1, 10 mM H2O2 for 30 min or longer, with or without Ca2+/ionomycin, EGTA, or Zn2+ with chloroquine; lysis with 10 mM iodoacetamide; dimer fraction by densitometry
[2] = target: Chimera GRK1^N-C, fusion protein containing regulatory domains of GRK1 (GRK1 1-191,512-557) (UniProt P28327); test: SPR; GRK1^N-C immobilised by amine coupling on a ProteOn GLH chip (up to 12,000 RU); analyte NCS-1 or dNCS-1 0.5 to 20 μM; 25 °C; 10 mM HEPES pH 7.4, 150 mM NaCl, 1 mM CaCl2, 0.05% Tween 20; global fits by the heterogeneous ligand model (both) or the bivalent analyte model (dNCS-1)
UniProt P28327, sequence (P28327 other isoform, or with tags, fused parts or gaps mutant): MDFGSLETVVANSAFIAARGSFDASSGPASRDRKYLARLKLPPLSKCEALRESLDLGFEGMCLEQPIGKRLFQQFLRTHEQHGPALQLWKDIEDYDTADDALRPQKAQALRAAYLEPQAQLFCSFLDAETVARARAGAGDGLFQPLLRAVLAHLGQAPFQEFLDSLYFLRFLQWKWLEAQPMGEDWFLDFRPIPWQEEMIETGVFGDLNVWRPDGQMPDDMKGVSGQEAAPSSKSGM

[3] = target: Neuronal calcium sensor-1 (NCS-1), recombinant, myristoylated, reduced monomer (UniProt P62166); test: SDS-PAGE under non-reducing conditions (disulfide dimer); 20 μM reduced NCS-1 with 0.1–1000 μM H2O2, 20 mM Tris-HCl pH 8.0, 150 mM NaCl, with 1 mM MgCl2, 1 mM CaCl2, 0.1 mM ZnCl2 or their combinations (1% SDS in controls), 37 °C, 30 min; densitometry
[4] = target: Neuronal calcium sensor-1 (NCS-1), recombinant, myristoylated, reduced monomer (UniProt P62166); test: redox equilibrium with GSSG/GSH, SDS-PAGE under non-reducing conditions; 1.5 µM dNCS-1, 50 mM HEPES pH 7.4, 100 mM KCl, 0.1 mM CaCl2 or 1 mM MgCl2, 0.1 mM GSSG and 8.8 µM–72.4 mM GSH, anaerobic, 35 °C, 62 h; densitometry
[5] = target: Neuronal calcium sensor-1 (NCS-1), recombinant, myristoylated, reduced monomer (UniProt P62166); test: SDS-PAGE under non-reducing conditions (disulfide dimer); preparation of dNCS-1: NCS-1 2 mg/mL dialysed against 20 mM Tris-HCl pH 8.0, 150 mM NaCl, 1 mM H2O2, 4 °C, 3 h
[6] = target: Neuronal calcium sensor-1 (NCS-1), recombinant, myristoylated, reduced monomer (UniProt P62166); test: SEC; analytical gel filtration on Superdex 75 10/300 GL, 20 mM Tris-HCl pH 8.0, 150 mM NaCl, 1 mM DTT (non-oxidizing), with 0.1 mM ZnCl2 or 1 mM EGTA

Row | Substance | dimer content (prolonged incubation with Zn2+/H2O2) [1] [%] | fraction of dNCS-1 of total protein (H2O2 after Zn2+ with chloroquine) [1] [%] | fraction of the dimer of total NCS-1 (10 mM H2O2, 30 min) [1] [%] | stoichiometry N [1] | KD 1 (heterogeneous ligand model) [2] [nM] | KD 2 (heterogeneous ligand model) [2] [nM] | koff 1 (heterogeneous ligand model) [2] [s⁻¹] | koff 2 (heterogeneous ligand model) [2] [s⁻¹] | kon 1 (heterogeneous ligand model) [2] [M⁻¹ s⁻¹] | kon 2 (heterogeneous ligand model) [2] [M⁻¹ s⁻¹] | dimer content (Zn2+-bound NCS-1, H2O2) [3] [%] | dimer fraction of total protein (the forms of Figure 4B, H2O2) [3] [%] | stoichiometry N [3] | dNCS-1 of total NCS-1 (Ca2+, Eh GSSG/GSH ~ −220 mV) [4] [%] | dNCS-1 in the dialysis mixture (1 mM H2O2) [5] [%] | stoichiometry N [6]
1 | NCS-1 in HEK293 cells transfected with NCS-1-pCI-neo (from UniProt P62166 1-190) (natural protein) | 25 to 30 | 9 | 4 to 5 | 2 | – | – | – | – | – | – | – | – | – | – | – | –
2 | Neuronal calcium sensor-1 (NCS-1), recombinant, myristoylated, reduced monomer (from UniProt P62166 1-190) (natural protein) | – | – | – | – | 590 | 2700 | 0.00016 | 0.0044 | 267 | 1910 | 75 | < 30 | 2 | 5 to 10 | 80 | 2
